Laboratory results as given in publication PMC7385124, “The molecular basis of thioalcohol production in human body odour” (Scientific Reports, 2020).

Tests used:
Assay in all cases: purified protein, by the assay type
Set-up in all cases: DTNB thiol release, A412, continuous steady-state Michaelis-Menten kinetics of C-S lyase
Details in all cases: pH 7.8; 37.0 °C
[1] = substrate: N[C@@H](CCSC[C@H](N)C(=O)O)C(=O)O
Description: (§1) In vitro activity assays were performed using an Epoch2 (BioTek) plate reader. Reactions were measured in 96-well plate. A continuous assay, described previously[3] was used to measure 3M3SH. A 200 μL reaction contained […], variable amounts of substrate and 0.4 mM DTNB in 50 mM KPi and 200 mM NaCl, pH 7.8. […] Each reaction was incubated at 37 °C for 30 min. Release of the thiol 3M3SH was measured by reaction with DTNB to form 2-nitro-5-thiobenzoic acid (TNB) which is measured at A412 nm every minute. Background rate of DTNB decomposition was subtracted in each assay. Michaelis–Menten plots were derived from 6 to 8 substrate concentrations using Prism Version 5.01 (GraphPad) to calculate the Kcat and KM. Enzyme concentrations were assumed to be the concentration of PLP-bound enzyme with two active sites per enzyme. Velocity curves for all in vitro kinetics are shown in the supplementary information (Supplementary Information Figures S10–S12). Next, we cloned and overexpressed genes encoding a representative range of PatB-type enzymes, with two MetC proteins as controls (Fig. 2, denoted by coloured dots) and purified the proteins for biochemical analysis.

[2] = substrate: CCCC(C)(CCO)SC[C@H](N)C(=O)O
Description: as §1

[3] = substrate: CC(C)(CCO)SC[C@H](N)C(=O)O
Description: as §1

B1: BsPatB (Bacillus subtilis subsp. subtilis str. 168) (protein)
chain: MNFDKREERLGTQSVKWDKTGELFGVTDALPMWVADMDFRAPEAITEALKERLDHGIFGYTTPDQKTKDAVCGWMQNRHGWKVNPESITFSPGVVTALSMAVQAFTEPGDQVVVQPPVYTPFYHMVEKNGRHILHNPLLEKDGAYAIDFEDLETKLSDPSVTLFILCNPHNPSGRSWSREDLLKLGELCLEHGVTVVSDEIHSDLMLYGHKHTPFASLSDDFADISVTCAAPSKTFNIAGLQASAIIIPDRLKRAKFSASLQRNGLGGLNAFAVTAIEAAYSKGGPWLDELITYIEKNMNEAEAFLSTELPKVKMMKPDASYLIWLDFSAYGLSDAELQQRMLKKGKVILEPGTKYGPGGEGFMRLNAGCSLATLQDGLRRIKAALS
notes: full length; N-terminal MGGGFA and C-terminal ENLYFQG-His10; expressed in E. coli MC1061; homodimer, PLP on Lys234
- Km [1]: 660 µM
- kcat [1]: 0.55 s⁻¹
- kcat/Km [1]: 839 M⁻¹ s⁻¹
- Km [2]: 380 µM
- kcat [2]: 1.92 s⁻¹
- kcat/Km [2]: 5110 M⁻¹ s⁻¹
- Km [3]: 400 µM
- kcat [3]: 0.945 s⁻¹
- kcat/Km [3]: 2360 M⁻¹ s⁻¹

B2: CjAecD (Corynebacterium jeikeium K411) (protein)
chain: MNATTQNNNLENTQNTCPQDSAVSVPGLATLRARGTMKWTVYDEDVLPLWVAETDFDTCPAVKQAIQSGVDREYFGYERRNQSVEKALAGFLDRRFGWQIEPTWVRLVPDVVKGVATAIDELTPQGSDVIVPVPSYHPFFDVPSAVKRPKVEVEMTKVKKNGAEEWAFDYAALEAAFASTDNPAGVGAMIVCNPYNPLGRAWRPEELAKLVELAAKYNVRLISDEIHAPVVYAPHKHTPLATLSETAARVTVTVLATSKGWNTAGLHCAQMIFTNPDDRAAMAKVSPLRTGSASTLGQVAAEAAYTDGEAWLDSELEYLEGNLDLLERRLPEVLPGAKFIRPEASFLLWVDLSEVPGLADNPGQKLLEGARVAFNEGTMFGAQGAGHVRINFGTSREILNEALDRIAEFAKEHANN
notes: full length; expressed in E. coli MC1061
- Km [1]: 210 µM
- kcat [1]: 1.18 s⁻¹
- kcat/Km [1]: 5520 M⁻¹ s⁻¹
- Km [2]: 740 µM
- kcat [2]: 1.71 s⁻¹
- kcat/Km [2]: 2300 M⁻¹ s⁻¹
- Km [3]: 800 µM
- kcat [3]: 2.65 s⁻¹
- kcat/Km [3]: 3160 M⁻¹ s⁻¹

B3: EcMalY (Escherichia coli K-12) (protein)
chain: MFDFSKVVDRHGTWCTQWDYVADRFGTADLLPFTISDMDFATAPCIIEALNQRLMHGVFGYSRWKNDEFLAAIAHWFSTQHYTAIDSQTVVYGPSVIYMVSELIRQWSETGEGVVIHTPAYDAFYKAIEGNQRTVMPVALEKQADGWFCDMGKLEAVLAKPECKIMLLCSPQNPTGKVWTCDELEIMADLCERHGVRVISDEIHMDMVWGEQPHIPWSNVARGDWALLTSGSKSFNIPALTGAYGIIENSSSRDAYLSALKGRDGLSSPSVLALTAHIAAYQQGAPWLDALRIYLKDNLTYIADKMNAAFPELNWQIPQSTYLAWLDLRPLNIDDNALQKALIEQEKVAIMPGYTYGEEGRGFVRLNAGCPRSKLEKGVAGLINAIRAVR
notes: full length; N-terminal MGGGFA and C-terminal ENLYFQG-His10; expressed in E. coli MC1061
- Km [1]: 2200 µM
- kcat [1]: 7.63 s⁻¹
- kcat/Km [1]: 3470 M⁻¹ s⁻¹
- Km [2]: 17490 µM
- kcat [2]: 4.4 s⁻¹
- kcat/Km [2]: 252 M⁻¹ s⁻¹
